Results reported in PMC10192418, “High-affinity peptides developed against calprotectin and their application as synthetic ligands in diagnostic assays” (Nature Communications, 2023).

B1: linear peptide 3 [modified: 5(6)-carboxyfluorescein on the N-terminus; 5(6)-carboxyfluorescein on the N-terminus] / B-RCAL (BÜHLMANN recombinant calprotectin; His6-linker-S100A9-linker-S100A8) [human] (parent)
chain 1: RSPESVAFPMFQSHWYSG
chain 2: MTCKMSQLERNIETIINTFHQYSVKLGHPDTLNQGEFKELVRKDLQNFLKKENKNEKVIEHIMEDLDTNADKQLSFEEFIMLMARLTWASHEKMHEGDEGPGHHHKPGLGEGTPLEVLFQGPMLTELEKALNSIIDVYHKYSLIKGNFHAVYRDDLKKLLETECPQYIRKKGADVWFKELDINTDGAVNFQEFLILVIKMGVAAHKKSHEESHKE

Variants of: B1
Test: fluorescence polarisation
Conditions: with B-RCAL (BÜHLMANN recombinant calprotectin; His6-linker-S100A9-linker-S100A8) [human]; one measurement

Which Kd does the source give for chain 1 P3A here?
Its Kd is 28 nM.

With chain 1 V6A as the variant, how does the Kd read?
The Kd was 39 nM.

For chain 1 Q12A, which Kd is on record?
The Kd was 27 nM.

chain 1 R1A was tested. Which Kd did it give?
The Kd was 32 nM.

With chain 1 A7G as the variant, how does the Kd read?
Its Kd is 29 nM.
